# Measurements as given in the nanobody polyreactivity screen of Harvey et al. (2022).
# Assay: yeast display, Sf9 membrane polyspecificity reagent, FACS + sequencing; frameworks hold sequencing errors
# Procedure, shortened: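 Using colony PCR, genes from sorted yeast display clones were amplified, then sequenced on MiSeq at 2 × 250 and filtered by CDR length. The clones had been stained with 10% biotinylated, detergent-solubilized Sf9 membrane reagent for 1 hour at 4 °C and sorted by FACS into low and high (top ~1%) gates on anti-HA and streptavidin fluorescence. Polyreactivity labels come from the gate of origin.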
row,Sequence,polyreactivity (PSR sort gate)
1,QVQLVESGGGLVQAGGSLRLSCAASGRIFPGYAMGWYRQAPGKERELVAGITWRTARTYYADSVKGRFTISRDNAKNTVYLQMNSLKPEDTAVYYCAAKYARYGRHVIFDYWGQGTQVTVSS,high polyreactivity
2,QVQLVESGGGLVQAGGSLRLSCAASGFTFGGYAMGWYRQAPGKERELVAAIRSSGDTTYYADSVKGRFTISRDNAKNTVYLQMNSLKPEDTAVYYCAAYSHHQFSRSEYYYWGQGTQVTVSS,low polyreactivity
3,QVQLVESGGGLVQAGGSLRLSCAASGFIFGGYAMGWYRQAPGKERELVAAISRSGGSTYYADSVKGRFTISRDNGKNTLNLKMNSLKREDTAVYYCNAVPRRQGFNYWGQGTQVTVSS,high polyreactivity
4,QVQLVESGGGLVQAGGSLRLSCAASGSIFQKYAMGWYRPAPGKERELVAAISSGGGRTYYADSVKGRFTISRDNAKNTVYLQMNSLKPEDTAVYYCAARGSYTSIFDYWGQGTQVTVSS,high polyreactivity
5,QVQLVESGGGLVQAGGSLRLSCAASGYMGWYRQAPGKERELVATISGSGGSPYYADSVKGRFSISRDNAKNTVYLQMNSLKPEDTARYYCTTEIWGVNRSGYDYWGQGTQVTVSS,low polyreactivity
6,QVQLVESGGGLDQAGGSLRLSCAASGRIYYNYAMGWYRQSPVKERELVAAISGSGGSTYYADSVKWRLTISRDNAKNTVYLLMNSLKPEDTAVYYCSTSGPQYYSRNFDYWGQGTQVTVSS,low polyreactivity
7,QVQLVESGGGLVQAGGSLRLSCAASGRTFNPYTMGWYRQAPGKEREFVATIRKSSGGTYYADSVKGRFTISRDTAKNTVYLQMNSLKPEDTAVYYCAAVGNGGMDYWGQGTQVTVSS,low polyreactivity
8,QVQLVESGGGLVQAGGSLRLSCAASGRIFGRYAMGWSRQAPGKERELVASISKRGGSTYYADSVKGRFTISRDNAKNTVYLQMNSLKPEDTAVYYCAALFLSHIYYYWGQGTQVTVSS,high polyreactivity
9,QVQVVESGGGLVQAGGSLRLSCAASGSIFGGYTMGWYRQAHGNERELVAGITISGGSTYYADSVKGRFTISRDTAKNTVYLQMNSLKPEDTAVYYCAAVSFVVSSWGYGYWGQGTQVTVSS,low polyreactivity
10,QVQLVESGGGLVQAGGSLRLSCAASGRTFFVYAMGWYRQAPVKERELVAAISNTGGRTYYADSVKGRFTISRDNAKNTVYLQMNSLKPEDTAVYYCAAPYSGPYRSYEYYWGQGTQVTVSS,low polyreactivity
11,QVQLVESGGGLVQAGGSLRLSCAASGFTFDENAMGWYRQAPGINYSGASTYYADSVKGRFTISRDNAKNTVYFQMNSLKPEDTAVYYCAAEVVAQMNYWGQGTQVTVSS,low polyreactivity
12,QVQLVESGGGLVQAGGSLRLSCAASGLIFPRYGMVWYRKAPGKERELVAAISWSGGSTYYADSVKGRFTISRDNAKNTVYLQMNSLKPEDTAVYYCAVLSNRGVYGSDYWGQGTQVTVSS,high polyreactivity
13,QVQLVESGGGLVQAGGSLRLSCAASGSTFYYGMGWYRQAPGKERELVAAISSRGGTTYYADSVKGRFTISRDNAKNTVYLQMNSLKPEDTAVDYCAAPVPYYVPRRNEGDYWGQGTQVTVSS,low polyreactivity
14,QVQLEESGGGLVQAGGSLRLSCAASGLTFRIYAMGWYRQAPGKERELVAAISYRGGSTYYADSVKGRFTISRDNAKNTVSLQMNSLKPEDTAVYYCAAGFVLNGIRYDFWGQGTQLTVSS,high polyreactivity
15,QVQLVESRGGLVQEVGSLRLSCAASGRIFYRYYMGWYRQAPGKERELVASITRSGITHYADSVKGRFTISRDNATNTVYLQMNSLKPEDTAVYYCAVDLLRRGFPTVVTTYDYWGQGTQVTVSS,high polyreactivity
16,QVQLVESGGGLVQAGGSLSLSCDASGRIIHSYAMGWYRQEPGKERELVAAISWSGTSTYYADSVKGRFTISRDNAKNTVYLQMNSLKPEDTEVYYCAARGRYVFDGYRMYFWGQGSQVTVSS,high polyreactivity
17,QLQLVESGGGLVQAGGSLRLSCAASGRTFSYNTMGWYRHAPGKERELVAAISWSGGSTYYADSVKGRFTISRDNAKNTVYLQMNSLKPEDSAVYYCNARSSGKGRSNAYYKGHGYWGQGTQVTVSS,high polyreactivity
18,QDQHVESGGGLVQAGGSLRLSCAASGHTFRLYTMGWYRQAPGKEREFVAAIRRRTGSTYYADSVKGRFTISRDNAQNTVYLQRNSMKAEVTAVYYCNAVGDARYNYRGQGTQVTVSS,high polyreactivity
19,QVQLEDSGGGLVQAGGSLPLSCAASGLTFYVNARGWNRQAPGKERELVAGIDSGGSTYYAASVKGRFTISRDNAKNTVYLQMNSLKPEDTAVYYCAADEGYVWPYYGWGFGKYDYWGEGTQVTVSS,low polyreactivity
20,QVQHVESGGGIDQAGGSLRLSCAASGSTSVQYAMGWYRQATGKERELVAAISLSVGSTYYADSVKGRFTISRDNAKITVYLQMNCLKPEDTAVYYCASGYPPEDPEDYWGQGTQVTVSS,low polyreactivity
21,QVQLVESGGGLVQAGGSLRLSCAASGSIFVGNAMGWYRQAPGKERELVAAISSSGGSTYYADSVKGRFTISRDNAKNTVYLQMNSLKPEDTAVYYCAADTYSTSVYYYWGQGTQVTVSS,low polyreactivity

row,Sequence,polyreactivity (PSR sort gate)
1,QVQLVESGGGLVQAGGSLRLSCAASGSTFRFYTMGWYRQAPGKERELVATITSGGSTNYADSVKGRFTISRDNAKNTVYLQMNSLKPEDTAVYYCAASSVLTNHDYWGQGTQVTVSS,low polyreactivity
2,QVQLVESGGGLVQAGCSLRLSCAASGTFGLYAMGWYRQAPGKERELVAAIRARGGSTYYADSVKGRFTISRDNAKNTVYLQMNSLKPEDTAVYYCAAEFWDVSLARKQWYDYWGQGTQVSVSS,high polyreactivity
3,QVQLVESGGGLVQAGGSLRISCAASGFIFGPNAMGWYRQAPGKERELVAAITYSGGSTYYADSVKGRFTISRDNAKNTVYLQMNSLKPEDTAVYYCAADLYTLRYGYRYEYWGQGTQVTVSS,high polyreactivity
4,QVQLVESGGGLVQAGGSLRLSCAASGSTFFSYAMGWYRQAPGKERELVAAISWIDDGTYYADSVKGRFTISRDNAKNTVYLQMNSLKPEDTAVYYCAADIGAYRTWDYEYWGQGTQVTVSS,low polyreactivity
5,QVQLVESGGGLVQAGGSLRLSCAASGSTFYLYAMGWYRQAPGKEREFVAAISWSGGRTYYADSVKGRFTISRDNAKNTVYLQMNSLKPEDTAVYYCAARRRYTWQYTRYDMGYWGQGTQVTVSS,low polyreactivity
6,QVQLVESGGGLVQAGGSLRLSCAAYGRIFSSYAMGWYRQAPGKERELVAAISSSGGRTYYADSVKGRFTISRDNAKNTVYLQMNRLKPEDTAVYYFARVTTGGYEYWGQGSQVTVSS,high polyreactivity
7,QVQLVESGGGLVQAGGSLRLSCAASGSIFYPNAMGWYRQAPGKEREFVAAISKSGGNTYYADSVKGRFTISRDNAKNTVYLQMNSLKPEDTAVYYCAARTQAFSRKGYGYWGQGTQVTVSS,high polyreactivity
8,QVQLVESGGGLVQAGGSLRLRCAASGSTFYHNAMGWYRQAPGKERELVAAISTRGTSTYYADSVKGRFTISRDKAKNTVYLQMNSLKPEDTAVYYCNAVYKLRARYDYWGQGTQVTVSS,high polyreactivity
9,QVQLVESGGGLVQAGGSLRLSCAASGSIFFKYAMGWYRQAPGKEREMVAAITWSGGRTYYADSVKGRFTISRDNAKNTVYLQMNSLKPEDTAVYYCNAYSIGVAAADDYWGQGTQVTVSS,high polyreactivity
10,QVQLVESGGGLVQAGGSLRLSCAASGLTFFWNAMGWYRQAPGKERELVAAISYSGGSTSYADSVKGRFTISRDNAKNSVYLQMNSLKPEDTAVYYCAAEYWYGPSKGDYWGQGTQVTVSS,high polyreactivity
11,QVQLVESGGGLVQAGGSLRLSCAASGRTFTYYAMGWYRQAPGKERELVAAISSTGGSTYYADSVKGRFTISRDNAKNTVTLQMNSLKPEDTAVYYCNVAFDDFDYWGQGTQVTVSS,low polyreactivity
12,QVQLVESGGGLVQAGGSLRLSCAASGSIFGRYAMGWYRQAPGKERELVASITRGAGSTYYADSVKGRFTISRDNAKNTVYLQMNSLKPEDTAVYYCRLAPRYRKGGYWGQGTQVTVSS,high polyreactivity
13,QVQLVESGGGLVQAGGSLRLSCAASGNIFSVYAMGWYRQAPGKERELVAAISSSGGRTYYADSVKGRFTISRENSKNTVYLQMNSLKPEDTAVYYCAARSYTGQFGYWGQGTQVTVSS,high polyreactivity
14,QVQLVESGGGLVQAGGSLRLSCAASGSTFKRNAMGWYRQAPGKERELVAAISFRGGSTYYADSVKGRFTISRDNAKNTVYLQMNSLKPEDTAVYYCAAGIYRIRGGGISFDYWGQGTQVTVSS,high polyreactivity
15,QFQLVESGVGLVQAGGSLRLSCAASGRIFTNYAMGWYRQAPGKERELVASINYSGATRNYADSVKGRFTISRDNAKNTVYLQMNSLKPEDTAVYYCNADIYPDLYGSTNYDFNYWGQGTQVTVSS,low polyreactivity
16,QVQLVESGGGLVQAGASLRLSCAASGSTYVRNAMGWYRQAPGKERELVAAITSGGNTYADSVKGRFTISRDNAKNTVYLQMNSLKPEDTAVYYSAAANEFGDVWAQFDYWGQGTQVTVSS,low polyreactivity
17,QVQLVESGGGLVQAGGTLRLSCAASGSTFLTNAMGWNRPAPGKERELVAAIRTSGGSTYYADSVKGRFTISRDNAKNTFYVLMNSLKPEDTAVYYCAASYLRRRFSEYYYWGQGTQVTVSS,high polyreactivity
18,QVQLVESGGGLVQAGGSLRLSCAASGFIFNYYDMGWYRQAPGKERELVAAITYSVGSTYYADSVKGRFTISRDNAKNTVYLQMNSLKPEDTAVYYCNKDFLYGIYSYDYWGQGTQVTVSS,high polyreactivity
19,QVQLVESGGGLVQAGGSLRLSCAASGRNFSLYAMGWYRQAPGKERELVAAISWSGGNTYYADSVKGRFTISRDNAKNTVYLQMNSLKPEDTAVYYCNTVSYRGDWNPSKYYYWGQGTQVTLSS,high polyreactivity
20,QVQLVESGGGLVQAGGSLRLSCAASGIICDYNAMGWYRQAPGKERELVAAITSTDNTNYADSVKGRFTISRDNAKNTVYLQMNSLKPEDTAVYSCNTDYWLSVVYAMDYWGQGTQVTVSS,low polyreactivity
